Source: article PMC13215203, “Phosphorylation remodels the mitotic centrosome matrix to generate bipartite γ-tubulin complex docking sites” (Science Advances, 2026)

Assays:
[1] = molecular target: the molecule itself; experiment: SEC-MALS; Superose 6 increase 10/300 or Superdex 200 increase 10/300 in 20 mM tris-HCl pH 7.5, 50 mM NaCl, 5 mM EGTA, 2 mM MgCl2, 1 mM DTT; 120 μl of ~2.0 mg/ml protein loaded; with or without PLK1 phosphorylation
[2] = molecular target: T1, untagged SPD-5 amino acids 101-473, not phosphorylated (C. elegans, UniProt P91349 101-473); experiment: pull-down; MBP pull-down: purified SPD-5 fragments mixed (2.0 μM) with or without PLK1(T194D) in kinase buffer, then 75 nM each with anti-MBP antibody in lysis buffer 2 h at 4°C and protein A beads 1 h; M6HH-tagged fragment is the bait; immunoblot; settings: both partners purified
T1 construct: also called fragment containing the γTuNA-In and PRGB2; source: E. coli BL21(DE3) pLysS, purified (glutathione agarose, cut from GST with PreScission or HRV-3C protease)
T1 sequence (looked up): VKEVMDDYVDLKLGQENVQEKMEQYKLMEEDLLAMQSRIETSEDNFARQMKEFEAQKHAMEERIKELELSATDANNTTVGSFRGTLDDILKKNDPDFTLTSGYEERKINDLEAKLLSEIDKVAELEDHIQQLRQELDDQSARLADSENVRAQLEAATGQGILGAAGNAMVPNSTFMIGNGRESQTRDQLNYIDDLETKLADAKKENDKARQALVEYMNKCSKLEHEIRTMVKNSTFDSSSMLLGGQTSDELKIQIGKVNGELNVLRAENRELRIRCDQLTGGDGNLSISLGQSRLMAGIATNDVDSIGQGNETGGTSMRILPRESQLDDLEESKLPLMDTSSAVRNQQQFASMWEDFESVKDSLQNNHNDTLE

[3] = molecular target: T2, M6HH-tagged SPD-5 amino acids 1-113 (PRGB1), not phosphorylated (C. elegans, UniProt P91349 1-113); experiment: as above; settings: both partners purified
T2 construct: source: E. coli BL21(DE3) pLysS, purified (Ni-NTA)
T2 sequence (looked up): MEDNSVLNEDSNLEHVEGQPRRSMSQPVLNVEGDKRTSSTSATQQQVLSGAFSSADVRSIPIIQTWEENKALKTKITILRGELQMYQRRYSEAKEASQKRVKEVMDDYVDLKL

B1: untagged SPD-5 amino acids 1-473, not phosphorylated (domain or fragment, C. elegans, UniProt P91349 1-473, looked up)
chain: MEDNSVLNEDSNLEHVEGQPRRSMSQPVLNVEGDKRTSSTSATQQQVLSGAFSSADVRSIPIIQTWEENKALKTKITILRGELQMYQRRYSEAKEASQKRVKEVMDDYVDLKLGQENVQEKMEQYKLMEEDLLAMQSRIETSEDNFARQMKEFEAQKHAMEERIKELELSATDANNTTVGSFRGTLDDILKKNDPDFTLTSGYEERKINDLEAKLLSEIDKVAELEDHIQQLRQELDDQSARLADSENVRAQLEAATGQGILGAAGNAMVPNSTFMIGNGRESQTRDQLNYIDDLETKLADAKKENDKARQALVEYMNKCSKLEHEIRTMVKNSTFDSSSMLLGGQTSDELKIQIGKVNGELNVLRAENRELRIRCDQLTGGDGNLSISLGQSRLMAGIATNDVDSIGQGNETGGTSMRILPRESQLDDLEESKLPLMDTSSAVRNQQQFASMWEDFESVKDSLQNNHNDTLE
notes: also called SPD-5 N terminus; source: E. coli BL21(DE3) pLysS, purified (glutathione agarose, cut from GST with PreScission or HRV-3C protease; gel filtration)
stoichiometry N [1]: 2

B2: M6HH-tagged SPD-5 amino acids 1-473, not phosphorylated (domain or fragment, C. elegans, UniProt P91349 1-473, looked up)
chain: MEDNSVLNEDSNLEHVEGQPRRSMSQPVLNVEGDKRTSSTSATQQQVLSGAFSSADVRSIPIIQTWEENKALKTKITILRGELQMYQRRYSEAKEASQKRVKEVMDDYVDLKLGQENVQEKMEQYKLMEEDLLAMQSRIETSEDNFARQMKEFEAQKHAMEERIKELELSATDANNTTVGSFRGTLDDILKKNDPDFTLTSGYEERKINDLEAKLLSEIDKVAELEDHIQQLRQELDDQSARLADSENVRAQLEAATGQGILGAAGNAMVPNSTFMIGNGRESQTRDQLNYIDDLETKLADAKKENDKARQALVEYMNKCSKLEHEIRTMVKNSTFDSSSMLLGGQTSDELKIQIGKVNGELNVLRAENRELRIRCDQLTGGDGNLSISLGQSRLMAGIATNDVDSIGQGNETGGTSMRILPRESQLDDLEESKLPLMDTSSAVRNQQQFASMWEDFESVKDSLQNNHNDTLE
notes: source: E. coli BL21(DE3) pLysS, purified (Ni-NTA)
stoichiometry N [1]: 2

B3: M6HH-tagged SPD-5 amino acids 1-345, not phosphorylated (domain or fragment, C. elegans, UniProt P91349 1-345, looked up)
chain: MEDNSVLNEDSNLEHVEGQPRRSMSQPVLNVEGDKRTSSTSATQQQVLSGAFSSADVRSIPIIQTWEENKALKTKITILRGELQMYQRRYSEAKEASQKRVKEVMDDYVDLKLGQENVQEKMEQYKLMEEDLLAMQSRIETSEDNFARQMKEFEAQKHAMEERIKELELSATDANNTTVGSFRGTLDDILKKNDPDFTLTSGYEERKINDLEAKLLSEIDKVAELEDHIQQLRQELDDQSARLADSENVRAQLEAATGQGILGAAGNAMVPNSTFMIGNGRESQTRDQLNYIDDLETKLADAKKENDKARQALVEYMNKCSKLEHEIRTMVKNSTFDSSSMLLGG
notes: as for B2
stoichiometry N [1]: 2

B4: untagged SPD-5 amino acids 1-473, phosphorylated by PLK1 (domain or fragment, C. elegans, UniProt P91349 1-473, looked up)
chain: MEDNSVLNEDSNLEHVEGQPRRSMSQPVLNVEGDKRTSSTSATQQQVLSGAFSSADVRSIPIIQTWEENKALKTKITILRGELQMYQRRYSEAKEASQKRVKEVMDDYVDLKLGQENVQEKMEQYKLMEEDLLAMQSRIETSEDNFARQMKEFEAQKHAMEERIKELELSATDANNTTVGSFRGTLDDILKKNDPDFTLTSGYEERKINDLEAKLLSEIDKVAELEDHIQQLRQELDDQSARLADSENVRAQLEAATGQGILGAAGNAMVPNSTFMIGNGRESQTRDQLNYIDDLETKLADAKKENDKARQALVEYMNKCSKLEHEIRTMVKNSTFDSSSMLLGGQTSDELKIQIGKVNGELNVLRAENRELRIRCDQLTGGDGNLSISLGQSRLMAGIATNDVDSIGQGNETGGTSMRILPRESQLDDLEESKLPLMDTSSAVRNQQQFASMWEDFESVKDSLQNNHNDTLE
modifications: phosphorylated in vitro by PLK1; predicted sites S5, S11, S170, T178, T198, T274, T335, S339, S340
notes: also called SPD-5 N terminus; source: E. coli BL21(DE3) pLysS, purified (glutathione agarose, cut from GST), then incubated with PLK1 and ATP
stoichiometry N [1]: 2

B5: M6HH-tagged SPD-5 amino acids 1-101 (PRGB1), not phosphorylated (domain or fragment, C. elegans, UniProt P91349 1-101, looked up)
chain: MEDNSVLNEDSNLEHVEGQPRRSMSQPVLNVEGDKRTSSTSATQQQVLSGAFSSADVRSIPIIQTWEENKALKTKITILRGELQMYQRRYSEAKEASQKRV
notes: as for B2
binding result [2]: binds

B6: Halo-tagged SPD-5 amino acids 135-200, not phosphorylated (domain or fragment, C. elegans, UniProt P91349 135-200, looked up)
chain: MQSRIETSEDNFARQMKEFEAQKHAMEERIKELELSATDANNTTVGSFRGTLDDILKKNDPDFTLT
notes: as for B2
binding result [3]: binds
